The target of the assay is T1, human CDH11 on primary human fibroblast-like synoviocytes (FLS) (human, UniProt P55287 54-796).
T1 construct: whole, on cells; also called human FLS; human synoviocytes
T1 sequence (looked up): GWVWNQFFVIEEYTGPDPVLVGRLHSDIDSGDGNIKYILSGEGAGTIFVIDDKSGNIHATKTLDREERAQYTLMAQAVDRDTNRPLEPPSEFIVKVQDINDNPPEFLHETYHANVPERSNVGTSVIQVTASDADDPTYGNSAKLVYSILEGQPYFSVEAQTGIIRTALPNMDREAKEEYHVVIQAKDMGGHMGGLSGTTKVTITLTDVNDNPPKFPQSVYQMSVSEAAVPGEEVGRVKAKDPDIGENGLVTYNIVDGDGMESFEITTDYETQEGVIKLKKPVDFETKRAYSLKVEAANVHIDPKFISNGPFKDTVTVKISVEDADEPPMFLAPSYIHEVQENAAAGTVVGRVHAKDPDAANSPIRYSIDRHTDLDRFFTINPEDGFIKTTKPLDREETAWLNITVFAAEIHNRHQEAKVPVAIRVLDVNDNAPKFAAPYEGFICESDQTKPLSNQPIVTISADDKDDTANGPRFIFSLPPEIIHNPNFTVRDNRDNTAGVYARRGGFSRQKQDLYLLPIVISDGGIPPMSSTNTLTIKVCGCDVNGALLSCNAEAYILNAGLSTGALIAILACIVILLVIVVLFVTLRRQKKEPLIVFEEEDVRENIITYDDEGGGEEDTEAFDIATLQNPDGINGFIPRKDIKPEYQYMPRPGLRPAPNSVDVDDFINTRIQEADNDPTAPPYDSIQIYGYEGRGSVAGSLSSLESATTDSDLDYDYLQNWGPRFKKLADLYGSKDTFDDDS
The assay can be described thus: flow cytometry, hybridoma supernatant on primary human FLS.

B1: anti-CDH11 antibody 10E1 (antibody, V domains shown)
VH: QVQLQQSGPGLVKPSQTLSLTCAISGDSVSSNSAAWNWIRQSPSRGLEWLGRTYYRSKWYNDYAVSVKSRITINPDTSKNQFSLQLNSMTPEDTAVYYCARATMVRGAFDYWGQGTLVTVSS
VL: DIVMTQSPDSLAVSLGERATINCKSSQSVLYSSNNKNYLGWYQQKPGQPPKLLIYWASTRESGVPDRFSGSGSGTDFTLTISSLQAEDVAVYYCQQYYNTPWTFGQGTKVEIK
notes: Monoclonal from a VelocImmune mouse hybridoma; It was detected with anti-mouse IgG Fc, so the constant regions are mouse; the isotype cannot be read in this copy; also called clone 10E1
Turning to B1, the binding result is on record as “binds”.
